Laboratory results published in publication PMC9482650, “Quantitative fragmentomics allow affinity mapping of interactomes” (Nature Communications, 2022).

Biological target: Inadl_10, Q8NI35
Test: holdup assay
Set-up: key: below the threshold = too weak to quantify, mostly under pKd 3.1 to 4
Conditions: plain residues with an end cap or a label only (N-terminal biotin on a linker: ahx)

Inadl_10, Q8NI35, sequence (Q8NI35 1673-1763): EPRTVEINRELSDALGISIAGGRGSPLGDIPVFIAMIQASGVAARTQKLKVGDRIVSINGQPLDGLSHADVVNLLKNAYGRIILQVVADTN

Binder | pKd
HSATSVHTSV [MTMR1, Q13613] | 3.62
AKPQPVDSWV [ARVCF, O00192] | below the threshold
KEYDDELTFF [USH1C, Q9Y6N9] | below the threshold
SAPATLSSRA [PDLIM2, Q96JY6] | below the threshold
ADENEQVSAV [RAPGEF6, Q8TEU7] | below the threshold

Same assay, conditions: plain residues with an end cap or a label only (N-terminal biotin on a linker: ttds)

Binder | pKd
GRLLGLETNV [ARHGEF26, Q96DR7] | below the threshold
KQVVPFSSSV [GDA, Q9Y2T3] | below the threshold
DLDEEEDTHL [PODXL, O00592] | below the threshold
GARVSKETPL [MAPK12, P53778] | below the threshold
PFRSRSPSEV [GPR6, P46095] | below the threshold
NPDALPETLV [ARHGAP6, O43182] | below the threshold
QRPYRRESEI [KCNJ12, Q14500] | below the threshold
FVETQHQTQV [FAT3, Q8TDW7] | 3.5

Biological target: PDLIM1, O00151
Test: holdup assay
Set-up: key: below the threshold = too weak to quantify, mostly under pKd 3.1 to 4
Conditions: plain residues with an end cap or a label only (N-terminal biotin on a linker: ahx)

PDLIM1, O00151, sequence (O00151 1-87): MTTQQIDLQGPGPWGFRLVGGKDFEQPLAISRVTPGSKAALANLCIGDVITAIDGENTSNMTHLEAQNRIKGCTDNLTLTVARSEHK

Binder | pKd
HSATSVHTSV [MTMR1, Q13613] | 3.72
AKPQPVDSWV [ARVCF, O00192] | 3.55
KEYDDELTFF [USH1C, Q9Y6N9] | below the threshold
SAPATLSSRA [PDLIM2, Q96JY6] | below the threshold
ADENEQVSAV [RAPGEF6, Q8TEU7] | below the threshold

Same assay, conditions: plain residues with an end cap or a label only (N-terminal biotin on a linker: ttds)

Binder | pKd
GRLLGLETNV [ARHGEF26, Q96DR7] | below the threshold
KQVVPFSSSV [GDA, Q9Y2T3] | below the threshold
DLDEEEDTHL [PODXL, O00592] | 3.52
GARVSKETPL [MAPK12, P53778] | below the threshold
PFRSRSPSEV [GPR6, P46095] | below the threshold
NPDALPETLV [ARHGAP6, O43182] | below the threshold
QRPYRRESEI [KCNJ12, Q14500] | below the threshold
FVETQHQTQV [FAT3, Q8TDW7] | below the threshold

Biological target: SCRIB_3, Q14160
Test: holdup assay
Set-up: key: below the threshold = too weak to quantify, mostly under pKd 3.1 to 4
Conditions: plain residues with an end cap or a label only (N-terminal biotin on a linker: ahx)

SCRIB_3, Q14160, sequence (Q14160 999-1103): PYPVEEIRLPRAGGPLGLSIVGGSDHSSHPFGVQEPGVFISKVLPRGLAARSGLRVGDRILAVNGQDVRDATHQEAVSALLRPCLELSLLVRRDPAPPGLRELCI

Binder | pKd
HSATSVHTSV [MTMR1, Q13613] | 3.74
AKPQPVDSWV [ARVCF, O00192] | 3.95
KEYDDELTFF [USH1C, Q9Y6N9] | 3.61
SAPATLSSRA [PDLIM2, Q96JY6] | below the threshold
ADENEQVSAV [RAPGEF6, Q8TEU7] | below the threshold

Same assay, conditions: plain residues with an end cap or a label only (N-terminal biotin on a linker: ttds)

Binder | pKd
GRLLGLETNV [ARHGEF26, Q96DR7] | 4.67
KQVVPFSSSV [GDA, Q9Y2T3] | 3.93
DLDEEEDTHL [PODXL, O00592] | below the threshold
GARVSKETPL [MAPK12, P53778] | 5.07
PFRSRSPSEV [GPR6, P46095] | 3.49
NPDALPETLV [ARHGAP6, O43182] | 3.99
QRPYRRESEI [KCNJ12, Q14500] | 4.76
FVETQHQTQV [FAT3, Q8TDW7] | 4.02
